B1: library; numbered along this chain (parent)
chain: MRKPRAAVGSGHRKQAASQEGRQKHAKNNSQAKPSACDGLARQPEEVVLQASVSSYHLFRDVAEVTAFRGSLLSWYDQEKRDLPWRRRAEDEMDLDRRAYAVWVSEVMLQQTQVATVINYYTGWMQKWPTLQDLASASLEEVNQLWAGLGYYSRGRRLQEGARKVVEELGGHMPRTAETLQQLLPGVGRYTAGAIASIAFGQATGVVDGNVARVLCRVRAIGADPSSTLVSQQLWGLAQQLVDPARPGDFNQAAMELGATVCTPQRPLCSQCPVESLCRARQRVEQEQLLASGSLSGSPDVEECAPNTGQCHLCLPPSEPWDQTLGVVNFPRKASRKPPREESSATCVLEQPGALGAQILLVQRPNSGLLAGLWEFPSVTWEPSEQLQRKALLQELQRWAGPLPATHLRHLGEVVHTFSHIKLTYQVYGLALEGQTPVTTVPPGARWLTQEEFHTAAVSTAMKKVFRVYQGQQPGTCMGSKRSQVSSPCSRKKPRMGQQVLDNFFRSHISTDAHSLNSAAQ

Variants of: B1
Test: 8OG:A repair function score (normalized; synonymous = 0, nonsense = -1) (normalized log-likelihood score); higher = more repair activity (WT-like)
Details: with 8OG:A DNA repair reporter (GFP) in HEK-293 MUTYH KO cells
Summary of the method: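 GFP+ (repair) and GFP− bins of viable mCherry+ cells were collected at 72 h from MUTYH knockout HEK-293 cells bearing lentiviral MUTYH cDNA NNN codon-scan libraries in 10 pg/ml doxycycline, co-transfected with an 8OG:A GFP repair reporter and mCherry. Tile amplicons were sequenced, and per-tile Rosace fitness scores were normalized to a repair function score anchored on synonymous and nonsense distributions. Synonymous medians were set to 0 and nonsense to -1, with variants under 300 counts per million at the start removed.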
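Also: cells sorted at 72 h after reporter transfection.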

8OG:A repair function score of substitutions, site by site:
Q282: K 0.0141 | F -0.021 | R -0.0175 | S -0.0408 | H -0.0165 | E -0.0248 | N -0.0575 | C -0.0445 | T -0.0623 | D -0.125 | W -0.0465 | A -0.0281 | I -0.0327 | L -0.0273 | M -0.0222 | G -0.0596 | Y -0.0373 | V -0.0489 | P -0.526
P273: D -1.05 | G -0.625 | T -0.453 | Y -0.661 | A -0.171 | C -0.28 | W -0.748 | N -0.903 | K -0.708 | M -1.05 | I -0.662 | Q -0.798 | S -0.426 | E -0.952 | V -0.419 | R -0.526 | L -0.946 | F -0.844 | H -0.569
R279: F -0.277 | V -0.344 | L -0.146 | P -1.12 | T -0.339 | Y -0.151 | M -0.178 | G -0.388 | A -0.278 | D -0.718 | H -0.0508 | Q -0.155 | E -0.233 | N -0.123 | W -0.139 | S -0.377 | C -0.251 | I -0.172 | K -0.0521
L268: Q -0.0131 | D 0.0003 | T 0.012 | Y -0.046 | C -0.13 | I -0.0493 | P -0.285 | K 0.0167 | G -0.0658 | V -0.0404 | W -0.0985 | S -0.00947 | N -0.0234 | E -0.133 | A -0.000124 | F 0.00448 | R 0.00479 | M 0.0171
S270: G -0.0285 | Y -0.036 | T -0.0207 | C -0.0715 | D -0.0528 | N -0.0408 | M -0.0147 | F -0.0287 | I -0.0239 | K -0.0187 | P -0.0287 | R -0.00848 | V -0.0277 | E -0.0683 | H 0.0198 | W -0.0132 | Q 0.028 | A -0.0829 | L -0.0471
P267: V -0.195 | Y -0.838 | R -1.04 | W -1.06 | N -0.863 | S -0.361 | Q -0.679 | T -0.202
C278: M -1.52 | W -1.05 | E -0.92 | Y -0.972 | L -1.1 | H -1.09 | F -1.07 | P -1.2 | Q -1.14 | R -1.27 | I -1.03 | G -1.17 | T -1.15 | V -1.16 | S -1.07 | K -1.26 | N -1.1 | D -1.08 | A -1.11
L277: M 0.00781 | T -0.115 | Q -0.0714 | W -0.00135 | F 0.00162 | I -0.036 | C -0.0293 | E -0.204 | D -0.199 | H -0.0518 | Y 0.014 | V -0.0751 | S -0.022 | R -0.152 | A -0.125 | P -0.383 | K -0.17 | N -0.0739
R283: A -0.145 | H -0.102 | T -0.308 | C -0.167 | W -0.115 | E -0.246 | V -0.0935 | D -0.662 | S -0.203 | N -0.173 | G -0.364 | F -0.16 | I -0.0881 | L -0.0781 | M -0.0516 | K -0.0478 | P -0.625 | Y -0.0964 | Q -0.0283
Q271: L -0.00321 | Y -0.0212 | T -0.00163 | W -0.0164 | D -0.0548 | S -0.0229 | V 0.0124 | E -0.00693 | H -0.0231 | A 0.0211 | F -0.0282 | K 0.0343 | R 0.0206 | I -0.0397 | G -0.0498 | M -0.0166 | N 0.0195 | P -0.311 | C -0.0175
C269: D -0.992 | G -1.26 | I -1.26 | K -1.17 | A -1.29 | T -1.06 | R -1.15 | M -1.18 | Q -1.19 | F -1.16 | L -1.21 | P -1.04 | S -1.28 | H -0.96 | N -1.31 | V -1.27 | W -1.4 | Y -1.12 | E -1.16
A280: R -0.814 | C -0.398 | Y -0.51 | L -0.262 | Q -0.761 | K -0.812 | T -0.13 | D -0.649 | I -0.189 | G -0.137 | W -0.57 | P -0.965 | V -0.0812 | M -0.582 | E -0.713 | N -0.632 | F -0.597 | S -0.172 | H -0.731
E285: G -0.0139 | F 0.000814 | A 0.00663 | C -0.00692 | D -0.0239
R281: S -0.126 | E -0.484 | V -0.131 | D -0.447 | T -0.16 | C -0.173 | Y -0.0264 | N -0.0901 | P -0.443 | L -0.166 | I -0.176 | M -0.0676 | H 0.00153 | A -0.0465 | W -0.105 | Q -0.113 | F -0.126 | G -0.264 | K -0.09
C272: H -1.32 | D -1.28 | A -1.16 | F -1.42 | S -1.17 | I -1.3 | V -1.12 | L -1.26 | E -1.29 | R -1.35 | W -1.09 | Q -1.09 | M -1.19 | G -1.24 | N -1.21 | K -1.41 | Y -0.982 | T -1.24 | P -1.26
E275: D -0.113 | Q 0.0396 | F 0.0124 | P -0.152 | V 0.0153 | K 0.00478 | G -0.00445 | W -0.0767 | H 0.015 | C -0.0803 | T 0.0286 | Y -0.0195 | M 0.00516 | S 0.00561 | I -0.0114 | R 0.00881 | L -0.00764 | N -0.00161 | A 0.0221
V284: F -0.00936 | W -0.0406 | K -0.0279 | D -0.0734 | N -0.0944 | P -0.32 | M -0.00894 | A 0.00964 | Y -0.0139 | S -0.0426 | I -0.0683 | L -0.0493 | R -0.149 | E -0.033 | C -0.0207 | G -0.236 | Q -0.0561 | T 0.0102 | H -0.12
V274: N -0.714 | S -0.589 | L -0.0284 | F -0.303 | P -1.23 | W -0.16 | E -0.423 | M -0.0354 | K -1.03 | C -0.176 | Y -0.549 | H -0.563 | I -0.0406 | Q -0.544 | G -0.676 | A -0.219 | D -1.01 | R -0.994 | T -0.241
S276: H 0.0172 | N -0.00423 | L -0.0125 | I -0.0404 | F -0.0215 | C -0.133 | E -0.0386 | T 0.0017 | D 0.00885 | P -0.0133 | Q 0.0194 | G -0.00134 | A 0.0102 | V -0.0409 | K 0.0174 | Y 0.0309 | R -0.0136 | W -0.0968 | M -0.0454

Source: the supplement of paper PMC11908140
